This is an account of results in patent EP4751739A1, “ANTIBODY-DRUG CONJUGATE TARGETING C-MET AND MEDICAL USE THEREOF” (Jiangsu Hengrui Pharmaceuticals Co., Ltd., priority 2023, dated 2025).

The target of this assay is human c-Met on tumor cell lines (human) (UniProt P08581). The assay is described as follows: cell-based or functional assay.
human c-Met on tumor cell lines (human), sequence (P08581 25-1390): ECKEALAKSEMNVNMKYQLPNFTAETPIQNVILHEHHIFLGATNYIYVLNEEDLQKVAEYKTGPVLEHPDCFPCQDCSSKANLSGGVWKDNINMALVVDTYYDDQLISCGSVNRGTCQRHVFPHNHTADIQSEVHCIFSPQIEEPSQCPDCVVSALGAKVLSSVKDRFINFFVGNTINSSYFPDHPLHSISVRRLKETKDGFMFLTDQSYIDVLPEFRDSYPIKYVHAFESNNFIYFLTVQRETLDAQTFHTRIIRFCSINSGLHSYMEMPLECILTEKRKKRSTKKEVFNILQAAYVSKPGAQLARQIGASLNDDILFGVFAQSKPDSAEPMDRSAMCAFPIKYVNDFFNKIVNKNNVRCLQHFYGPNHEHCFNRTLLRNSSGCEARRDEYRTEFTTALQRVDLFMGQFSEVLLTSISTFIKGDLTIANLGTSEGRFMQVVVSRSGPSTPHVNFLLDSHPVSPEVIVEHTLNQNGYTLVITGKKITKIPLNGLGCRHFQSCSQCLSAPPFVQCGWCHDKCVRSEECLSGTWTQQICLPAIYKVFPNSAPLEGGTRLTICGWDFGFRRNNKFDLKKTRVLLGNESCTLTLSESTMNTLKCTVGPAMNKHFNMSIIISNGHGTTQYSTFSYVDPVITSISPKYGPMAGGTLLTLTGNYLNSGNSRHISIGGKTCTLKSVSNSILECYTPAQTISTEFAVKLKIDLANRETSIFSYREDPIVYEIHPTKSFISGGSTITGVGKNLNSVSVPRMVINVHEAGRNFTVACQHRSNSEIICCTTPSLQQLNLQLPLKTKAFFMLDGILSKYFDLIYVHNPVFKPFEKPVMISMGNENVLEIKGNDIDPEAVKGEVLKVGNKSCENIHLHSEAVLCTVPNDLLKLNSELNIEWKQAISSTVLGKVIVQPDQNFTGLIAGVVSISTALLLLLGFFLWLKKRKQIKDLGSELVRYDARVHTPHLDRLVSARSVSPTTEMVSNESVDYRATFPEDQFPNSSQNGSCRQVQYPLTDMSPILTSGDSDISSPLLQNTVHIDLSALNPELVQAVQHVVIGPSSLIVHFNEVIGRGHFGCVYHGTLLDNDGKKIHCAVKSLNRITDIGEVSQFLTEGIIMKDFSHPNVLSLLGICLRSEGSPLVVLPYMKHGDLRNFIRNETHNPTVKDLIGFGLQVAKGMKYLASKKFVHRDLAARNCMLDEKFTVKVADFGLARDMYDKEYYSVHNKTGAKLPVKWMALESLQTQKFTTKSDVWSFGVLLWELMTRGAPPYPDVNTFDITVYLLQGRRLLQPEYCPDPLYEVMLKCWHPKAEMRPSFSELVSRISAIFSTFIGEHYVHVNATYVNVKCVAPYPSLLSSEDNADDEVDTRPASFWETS

Consider Teli-VcMMAE (antibody), for which the Endocytosis ratio% at 0 h, EBC-1 cells, 20 nM, flow cytometry worked out at 0%; the Endocytosis ratio% at 0.5 h, EBC-1 cells, 20 nM, flow cytometry worked out at 4.36%; the Endocytosis ratio% at 2 h, EBC-1 cells, 20 nM, flow cytometry amounted to 31.7%; the Endocytosis ratio% at 4 h, EBC-1 cells, 20 nM, flow cytometry stood at 58%. Besides, the Endocytosis ratio% at 24 h, EBC-1 cells, 20 nM, flow cytometry was found to be 97.3%.
The matching figures for ABT-700 (antibody): 0%, 5.54%, 29.3%, 54.2% and 97.8%.
